Test results as given in article doi:10.1101/2023.01.02.522444 (bioRxiv, 2023).

Tests used:
Isw1 (residues 69-1129) = Isw1 (residues 69-1129) (S. cerevisiae, UniProt P38144 69-1129); assay: cryo-EM structure
[1] = molecular target: histone H4 (Xenopus), in the nucleosome (Xenopus, UniProt P62799 1-103); assay: cryo-EM structure

Chain of Isw1 (residues 69-1129) (P38144 69-1129): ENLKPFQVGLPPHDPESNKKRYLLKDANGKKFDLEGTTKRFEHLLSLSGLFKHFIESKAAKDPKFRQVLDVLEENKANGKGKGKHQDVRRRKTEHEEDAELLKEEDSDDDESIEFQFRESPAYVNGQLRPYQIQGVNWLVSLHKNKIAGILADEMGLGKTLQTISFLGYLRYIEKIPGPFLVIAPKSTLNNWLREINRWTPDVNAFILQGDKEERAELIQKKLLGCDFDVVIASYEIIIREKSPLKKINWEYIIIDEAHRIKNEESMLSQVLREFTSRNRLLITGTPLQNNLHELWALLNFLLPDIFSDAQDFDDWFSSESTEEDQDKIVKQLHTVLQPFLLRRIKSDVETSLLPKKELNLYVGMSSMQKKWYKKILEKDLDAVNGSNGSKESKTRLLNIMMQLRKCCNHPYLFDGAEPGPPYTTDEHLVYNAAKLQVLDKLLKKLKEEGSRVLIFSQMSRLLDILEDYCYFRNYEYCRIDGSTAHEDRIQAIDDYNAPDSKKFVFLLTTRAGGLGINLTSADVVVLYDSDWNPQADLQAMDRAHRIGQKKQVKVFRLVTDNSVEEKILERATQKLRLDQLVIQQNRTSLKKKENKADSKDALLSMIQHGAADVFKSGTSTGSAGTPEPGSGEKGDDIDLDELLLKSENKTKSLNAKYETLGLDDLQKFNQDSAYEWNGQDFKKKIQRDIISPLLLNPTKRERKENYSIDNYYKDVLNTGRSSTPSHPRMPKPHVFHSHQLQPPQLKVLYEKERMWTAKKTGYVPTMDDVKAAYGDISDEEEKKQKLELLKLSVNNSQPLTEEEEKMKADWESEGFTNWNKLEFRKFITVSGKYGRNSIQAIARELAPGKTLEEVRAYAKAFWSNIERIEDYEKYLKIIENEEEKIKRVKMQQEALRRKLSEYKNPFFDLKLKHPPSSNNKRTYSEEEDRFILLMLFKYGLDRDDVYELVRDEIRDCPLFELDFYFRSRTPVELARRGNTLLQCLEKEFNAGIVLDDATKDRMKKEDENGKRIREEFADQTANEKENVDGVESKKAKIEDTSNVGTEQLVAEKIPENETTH

binding result (Isw1 (residues 69-1129)): binds | binding result [1]: binds
B1: Ioc3 (residues 127-749) (domain or fragment)
chain: VAPKPKPAHEQVEPALIPSNWTSVIPLLTSDFKNQYSVISRLKNPNMKPVPYAGDIIKLMAFINKFSSFFHSDLQNLSFQDFEVGLDLYPGDPNGSAAGIVKGPEDTSLLLYPDFMAIKDIVYCQDKMNLLFLSLLDLTFTENFDGKSAKKKGPLTTWENLKSSSKKVFSNPLYRLRLVAREWGYPREWRQQLPSDQDISKPKTALFEQDEQTPVVDPSHPEILTPNIYTWNANEPLPLESNPLYNREMDKNGILALKPMDRVVLLRALTDWCASHSSAIHDEIYKLTHGKKDPVFGIQTQQVPRYTIEGVDNTINQFKKLCSLIQSRYEIRSKKKHFVKQLKEGKKPDLSRKLEILKEIKAELKNAVKSEKDELLFSLYDKWVPLFEGELPDQPLANPFSERLYKLRLQEFFLGRVPHIGDFYMPRLHSYGDSLEMSTFTDLRNLQALLSKFKNNEYNAFTLFENDGQSMSAQFKLFYHDTPSLAHDVARGRNTSGKVYWYELCHDSATLLEFLEFLDYKIVKPQDEKKEGNEKEKEALNNEAHILEQKSTTDNNPSINTNPLPKDAKYNTARKKLQILKEFLSDYYFILRQFEQMKVQFADMKPGKRQLRRIQRQTVNYNT
